# Data: IntAct's records for PubMed 22124327
# Biological target: otub1_human OTUB1 (UniProt Q96FW1)
# Sequence (Q96FW1 whole entry): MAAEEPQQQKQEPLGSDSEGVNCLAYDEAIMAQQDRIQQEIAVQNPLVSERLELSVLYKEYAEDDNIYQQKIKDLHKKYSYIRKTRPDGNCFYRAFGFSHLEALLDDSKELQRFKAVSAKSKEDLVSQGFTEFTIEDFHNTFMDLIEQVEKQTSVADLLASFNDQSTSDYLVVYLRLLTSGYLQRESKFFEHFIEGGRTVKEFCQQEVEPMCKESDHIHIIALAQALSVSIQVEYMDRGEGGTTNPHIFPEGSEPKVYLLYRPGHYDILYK
# Ubiquitin-conjugating enzyme E2 D1 (Homo sapiens), P51668 D87A, sequence (P51668 whole entry D87A): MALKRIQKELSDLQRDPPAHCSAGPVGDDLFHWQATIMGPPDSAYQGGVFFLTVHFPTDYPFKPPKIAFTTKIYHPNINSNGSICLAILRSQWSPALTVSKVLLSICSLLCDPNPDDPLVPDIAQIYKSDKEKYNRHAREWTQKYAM
substance,measurement,value
"Ubiquitin-conjugating enzyme E2 D1 (Homo sapiens), P51668 D87A",effect of a mutation on the interaction,disrupting interaction
